According to patent US20180291110A1 (Hoffmann-La Roche, published 2018):
Where two headings read alike, the source gives them in different places. One block for each binder: values may come before it.

Assays:
[1] = target: T1, Her2 ECD (amino acids 1 to 629 of matured HER2 with C-terminal avi-tag and His-tag) (human, UniProt P04626 23-652); assay: SPR, Ab captured, Her2 analyte
T1 construct: also called purified Her2

[2] = target: T1, Her2 ECD (amino acids 1 to 629 of …); assay: SPR, Ab captured, Her2 analyte; remark: listed apart in the source
[3] = target: T1, Her2 ECD (amino acids 1 to 629 of …); assay: SPR, Fab from bacterial supernatant captured, Her2 analyte
[4] = target: T1, Her2 ECD (amino acids 1 to 629 of …); assay: SPR, Ab captured, Her2 analyte; remark: listed apart in the source
[5] = target: T2, human transferrin receptor (recombinant, for surface plasmon resonance) (human, UniProt P02786 89-760); assay: SPR
T2 construct: also called huTfR; human transferrin receptor-biotinylated

[6] = target: T2, human transferrin receptor …; assay: SPR B4000 25C
[7] = target: T2, human transferrin receptor …; assay: BIAcore T200 25C

T2 sequence (P02786 89-760 limits assumed): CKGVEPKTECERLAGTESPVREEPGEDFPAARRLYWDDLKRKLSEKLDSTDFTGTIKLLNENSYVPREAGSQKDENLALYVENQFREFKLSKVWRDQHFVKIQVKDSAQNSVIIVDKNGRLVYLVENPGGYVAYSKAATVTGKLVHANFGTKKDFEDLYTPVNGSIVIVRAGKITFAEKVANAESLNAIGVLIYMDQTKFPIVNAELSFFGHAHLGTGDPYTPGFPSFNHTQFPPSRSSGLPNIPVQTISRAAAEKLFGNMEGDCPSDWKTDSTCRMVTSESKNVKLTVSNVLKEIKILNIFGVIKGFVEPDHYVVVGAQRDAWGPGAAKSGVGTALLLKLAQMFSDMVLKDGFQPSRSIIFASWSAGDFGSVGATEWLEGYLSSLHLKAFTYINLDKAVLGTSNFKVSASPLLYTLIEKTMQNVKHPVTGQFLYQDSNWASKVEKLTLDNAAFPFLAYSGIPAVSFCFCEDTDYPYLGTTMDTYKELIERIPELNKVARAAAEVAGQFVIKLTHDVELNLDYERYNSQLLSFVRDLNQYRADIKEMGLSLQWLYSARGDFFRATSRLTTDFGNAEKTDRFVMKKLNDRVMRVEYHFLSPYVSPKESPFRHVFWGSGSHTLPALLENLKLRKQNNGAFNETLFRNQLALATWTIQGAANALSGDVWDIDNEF

Kd [1]: 4.96 nM
koff [1]: 0.00209 s⁻¹
kon [1]: 422000 M⁻¹ s⁻¹
Kd [2]: 26.7 nM
koff [2]: 0.00173 s⁻¹
kon [2]: 64700 M⁻¹ s⁻¹
B1: Pertuzumab HC x Pertuzumab (Tras.L3) LC (antibody, V domains shown)
VH: EVQLVESGGGLVQPGGSLRLSCAASGFTFTDYTMDWVRQAPGKGLEWVADVNPNSGGSIYNQRFKGRFTLSVDRSKNTLYLQMNSLRAEDTAVYYCARNLGPSFYFDYWGQGTLVTVSS
VL: DIQMTQSPSSLSASVGDRVTITCKASQDVSIGVAWYQQKPGKAPKLLIYSASYRYTGVPSRFSGSGSGTDFTLTISSLQPEDFATYYCQQHYTTPPTFGQGTKVEIK
notes: human IgG

Kd [1]: 72.5 nM
koff [1]: 0.0236 s⁻¹
kon [1]: 325000 M⁻¹ s⁻¹
Kd [2]: 1090 nM
koff [2]: 0.05 s⁻¹
kon [2]: 41900 M⁻¹ s⁻¹
B2: Trastuzumab HC x Pertuzumab (Tras.L3) LC (antibody, V domains shown)
VH: not shown
VL: DIQMTQSPSSLSASVGDRVTITCKASQDVSIGVAWYQQKPGKAPKLLIYSASYRYTGVPSRFSGSGSGTDFTLTISSLQPEDFATYYCQQHYTTPPTFGQGTKVEIK
notes: human IgG

Kd [3]: 3 nM
B3: Pertuzumab aff.mat. clone C8 with common light chain (Fab, V domains shown)
VH: EVQLVESGGGLVQPGGSLRLSCAASGFTFTDYTMDWVRQAPGKGLEWVADVNPNSGGSIMNRRFKGRFTLSVDRSKNTLYLQMNSLRAEDTAVYYCARNLGPSFYFDYWGQGTLVTVSS
VL: DIQMTQSPSSLSASVGDRVTITCKASQDVSTAVAWYQQKPGKAPKLLIYSASFRYTGVPSRFSGSRSGTDFTLTISSLQPEDFATYYCQQHYTTPPTFGQGTKVEIK
notes: bacterial Fab

Kd [3]: 1 nM
B4: Pertuzumab aff.mat. clone G2 with common light chain (Fab, V domains shown)
VH: EVQLVESGGGLVQPGGSLRLSCAASGFTFTDYTMDWVRQAPGKGLEWVADVNPNSGGYIVNRRFKGRFTLSVDRSKNTLYLQMNSLRAEDTAVYYCARNLGPSFYFDYWGQGTLVTVSS
VL: DIQMTQSPSSLSASVGDRVTITCKASQDVSTAVAWYQQKPGKAPKLLIYSASFRYTGVPSRFSGSRSGTDFTLTISSLQPEDFATYYCQQHYTTPPTFGQGTKVEIK
notes: bacterial Fab

Kd [3]: 1 nM
B5: Pertuzumab aff.mat. clone B2 with common light chain (Fab, V domains shown)
VH: EVQLVESGGGLVQPGGSLRLSCAASGFTFNDYTMDWFRQAPGKGLEWVADVNPNSGGSIYNQRFKGRFTLSVDRSKNTLYLQMNSLRAEDTAVYYCARNLGPNFYFDYWGQGTLVTVSS
VL: DIQMTQSPSSLSASVGDRVTITCKASQDVSTAVAWYQQKPGKAPKLLIYSASFRYTGVPSRFSGSRSGTDFTLTISSLQPEDFATYYCQQHYTTPPTFGQGTKVEIK
notes: bacterial Fab

Kd [3]: 1 nM
B6: Pertuzumab aff.mat. clone D1 with common light chain (Fab, V domains shown)
VH: EVQLVESGGGLVQPGGSLRLSCAASGFTFNDYTMDWVRQAPGKGLEWVADVNPNSGGSIYNQRFKGRFTLSVDRSKNTLYLQMNSLRAEDTAVYYCARNLGPFFYFDYWGQGTLVTVSS
VL: DIQMTQSPSSLSASVGDRVTITCKASQDVSTAVAWYQQKPGKAPKLLIYSASFRYTGVPSRFSGSRSGTDFTLTISSLQPEDFATYYCQQHYTTPPTFGQGTKVEIK
notes: bacterial Fab with Flag-tag, from supernatant

Kd [3]: 0.5 nM
B7: Pertuzumab aff.mat. clone E1 with common light chain (Fab, V domains shown)
VH: EVQLVESGGGLVQPGGSLRLSCAASGFTFADYTMDWVRQAPGKGLEWVADVNPNSGGSIYNQRFKGRFTLSVDRSKNTLYLQMNSLRAEDTAVYYCARNLGPWFYFDYWGQGTLVTVSS
VL: DIQMTQSPSSLSASVGDRVTITCKASQDVSTAVAWYQQKPGKAPKLLIYSASFRYTGVPSRFSGSRSGTDFTLTISSLQPEDFATYYCQQHYTTPPTFGQGTKVEIK
notes: bacterial Fab

Kd [3]: 1 nM
B8: Pertuzumab aff.mat. clone A1 with common light chain (Fab, V domains shown)
VH: EVQLVESGGGLVQPGGSLRLSCAASGFTFTDYTMDWVRQAPGKGLEWVADVNPNSGGSIVNQRFKGRFTLSVDRSKNTLYLQMNSLRAEDTAVYYCARNLGPWFYFDYWGQGTLVTVSS
VL: DIQMTQSPSSLSASVGDRVTITCKASQDVSTAVAWYQQKPGKAPKLLIYSASFRYTGVPSRFSGSRSGTDFTLTISSLQPEDFATYYCQQHYTTPPTFGQGTKVEIK
notes: bacterial Fab

Kd [4]: 0.202 nM
koff [4]: 5.42e-05 s⁻¹
kon [4]: 269000 M⁻¹ s⁻¹
B9: Trastuzumab HC x Pertuzumab (Tras.L3)(QM) LC (antibody, V domains shown)
VH: not shown
VL: DIQMTQSPSSLSASVGDRVTITCKASQDVSTAVAWYQQKPGKAPKLLIYSASFRYTGVPSRFSGSRSGTDFTLTISSLQPEDFATYYCQQHYTTPPTFGQGTKVEIK

koff [5]: 0.000552 s⁻¹
B10: 4/94 SEQ ID NO 199 / SEQ ID NO 209 (antibody, V domains shown)
VH: QVQLQESGPGLVKPSETLSLTCTVSGFNIKDTYIHWVIQRPGKGLEWIGRIDPANGDTKSDPSLQSRVTISADTSKNQASLKLSSVTAADTAVYYCVRDYLYPYYFDFWGQGTTVTVSS
VL: KIVLTQSPGTLSLSPGERATLSCRASESVDTYVSWYQQKPGQAPRLLIYGASNRYTGIPDRFSGSGSGTDFTLTISRLEPEDFADYYCGQTYNYPLTFGQGTKLEI

koff [5]: 0.000299 s⁻¹
B11: 4/94 SEQ ID NO 200 / SEQ ID NO 207 (antibody, V domains shown)
VH: EVQLVESGGGLVQPGGSLRLSCAASGFNIKDTYIHWVIQAPGKGLEWVGRIDPANGDTKSDPSVQVRATISADTSKNTAYLQMNSLRAEDTAVYYCVRDYLYPYYFDFWGQGTTVTVSS
VL: KIVLTQSPGTLSLSPGERATLSCRASESVDTYVSWYQQKPGQAPRLLIYGASNRYTGVPDRFSGSGSGTDFTLTISRLEPEDFADYYCGQTYNYPLTFGQGTKLEI

koff [5]: 0.000326 s⁻¹
B12: 4/94 SEQ ID NO 200 / SEQ ID NO 209 (antibody, V domains shown)
VH: EVQLVESGGGLVQPGGSLRLSCAASGFNIKDTYIHWVIQAPGKGLEWVGRIDPANGDTKSDPSVQVRATISADTSKNTAYLQMNSLRAEDTAVYYCVRDYLYPYYFDFWGQGTTVTVSS
VL: KIVLTQSPGTLSLSPGERATLSCRASESVDTYVSWYQQKPGQAPRLLIYGASNRYTGIPDRFSGSGSGTDFTLTISRLEPEDFADYYCGQTYNYPLTFGQGTKLEI

koff [5]: 0.000306 s⁻¹
B13: 4/94 SEQ ID NO 200 / SEQ ID NO 208 (antibody, V domains shown)
VH: EVQLVESGGGLVQPGGSLRLSCAASGFNIKDTYIHWVIQAPGKGLEWVGRIDPANGDTKSDPSVQVRATISADTSKNTAYLQMNSLRAEDTAVYYCVRDYLYPYYFDFWGQGTTVTVSS
VL: EIVLTQSPGTLSLSPGERATLSCRASESVDTYVSWYQQKPGQAPRLLIYGASNRYTGVPDRFSGSGSGTDFTLTISRLEPEDFADYYCGQTYNYPLTFGQGTKLEI

koff [6]: 0.00396 s⁻¹
B14: VH23-DANG/VK9-GYS (antibody, V domains shown)
VH: QSMQESGPGLVKPSQTLSLTCTVSGFSLSSYAMSWIRQHPGKGLEWIGYIWSGGSTDYASWAKSRVTISKTSTTVSLKLSSVTAADTAVYYCARRYGTSYPDYGDANGFDPWGQGTLVTVSS
VL: AIQLTQSPSSLSASVGDRVTITCRASQSISSYLAWYQQKPGKAPKLLIYRASTLASGVPSRFSGSGSGTDFTLTISSLQPEDFATYYCQQGYSSSNVDNTFGGGTKVEIK

koff [6]: 0.00652 s⁻¹
B15: VH9-DANG/VK9-CYS (antibody, V domains shown)
VH: QQLLESGGGLVQPGGSLRLSCAASGFTFSSYAMSWVRQAPGKGLEWVGYIWSGGSTDYADSVKGRFTISRDNSKNTLYLQMNSLRAEDTAVYYCAKRYGTSYPDYGDANGFDPWGQGTLVTVSS
VL: AIQLTQSPSSLSASVGDRVTITCRASQSISSYLAWYQQKPGKAPKLLIYRASTLASGVPSRFSGSGSGTDFTLTISSLQPEDFATYYCQQCYSSSNVDNTFGGGTKVEIK

koff [6]: 0.0395 s⁻¹
Kd [7]: 447 nM
koff [7]: 0.0395 s⁻¹
kon [7]: 88300 M⁻¹ s⁻¹
B16: VH23-DASG/VL09-NYA (SEQ ID NO 192/193) (antibody, V domains shown)
VH: QSMQESGPGLVKPSQTLSLTCTVSGFSLSSYAMSWIRQHPGKGLEWIGYIWSGGSTDYASWAKSRVTISKTSTTVSLKLSSVTAADTAVYYCARRYGTSYPDYGDASGFDPWGQGTLVTVSS
VL: AIQLTQSPSSLSASVGDRVTITCRASQSISSYLAWYQQKPGKAPKLLIYRASTLASGVPSRFSGSGSGTDFTLTISSLQPEDFATYYCQQNYASSNVDNTFGGGTKVEI
notes: also called VH23-DASG/VK9-NYA

koff [6]: 0.0149 s⁻¹
Kd [7]: 113 nM
koff [7]: 0.0137 s⁻¹
kon [7]: 121000 M⁻¹ s⁻¹
B17: VH23-DAQG/VL09-NYA (SEQ ID NO 205/193) (antibody, V domains shown)
VH: QSMQESGPGLVKPSQTLSLTCTVSGFSLSSYAMSWIRQHPGKGLEWIGYIWSGGSTDYASWAKSRVTISKTSTTVSLKLSSVTAADTAVYYCARRYGTSYPDYGDAQGFDPWGQGTLVTVSS
VL: AIQLTQSPSSLSASVGDRVTITCRASQSISSYLAWYQQKPGKAPKLLIYRASTLASGVPSRFSGSGSGTDFTLTISSLQPEDFATYYCQQNYASSNVDNTFGGGTKVEI
notes: also called VH23-DAQG/VK9-NYA

koff [5]: 0.000232 s⁻¹
B18: 4/94 SEQ ID NO 200 / murine VL (antibody, V domains shown)
VH: EVQLVESGGGLVQPGGSLRLSCAASGFNIKDTYIHWVIQAPGKGLEWVGRIDPANGDTKSDPSVQVRATISADTSKNTAYLQMNSLRAEDTAVYYCVRDYLYPYYFDFWGQGTTVTVSS
VL: KIVMTQSPKSMSMSVGERVTLNCRASESVDTYVSWYQQKPEQSPELLIYGASNRYTGVPDRFTGSGSATDFTLTISSVQAEDLADYYCGQTYNYPLTFGAGTKLELKR

koff [5]: 0.000274 s⁻¹
B19: 4/94 SEQ ID NO 200 / SEQ ID NO 201 (antibody, V domains shown)
VH: EVQLVESGGGLVQPGGSLRLSCAASGFNIKDTYIHWVIQAPGKGLEWVGRIDPANGDTKSDPSVQVRATISADTSKNTAYLQMNSLRAEDTAVYYCVRDYLYPYYFDFWGQGTTVTVSS
VL: KIQMTQSPSSLSASVGDRVTITCRASESVDTYVSWYQQKPGKAPKLLIYGASNRYTGVPSRFSGSGSGTDFTLTISSLQPEDFADYYCGQTYNYPLTFGQGTKLEI
